“And” between values parts separate entries of the source, which are not always exact repeats. Equal entries are not always repeated. Where two headings read alike, the source gives them in different places.
Legend:
[1] = target: Isotopically depleted, truncated, strepII-tagged R. rubrum encapsulated ferritin (wild type) (Rhodospirillum rubrum); test: native MS
[2] = target: Isotopically depleted, truncated, strepII-tagged R. rubrum encapsulated ferritin (wild type) (Rhodospirillum rubrum); test: native MS; remark: listed apart in the source
[3] = target: Isotopically depleted, truncated, strepII-tagged R. rubrum encapsulated ferritin (wild type) (Rhodospirillum rubrum); test: native MS; remark: listed apart in the source
[4] = target: Isotopically depleted, truncated, strepII-tagged R. rubrum encapsulated ferritin (wild type) (Rhodospirillum rubrum); test: native MS; remark: listed apart in the source
[5] = target: Isotopically depleted, truncated, strepII-tagged R. rubrum encapsulated ferritin (wild type) (Rhodospirillum rubrum); test: native MS; remark: listed apart in the source
[6] = target: Isotopically depleted, truncated, strepII-tagged R. rubrum encapsulated ferritin (wild type) (Rhodospirillum rubrum); test: native MS; remark: listed apart in the source
crystal structure = target: the molecule itself; test: crystal structure
SEC = target: the molecule itself; test: SEC
native MS [7] = target: the molecule itself; test: native MS
[8] = target: T1, Rhodospirillum rubrum encapsulin (Rhodospirillum rubrum, UniProt Q2RVS0 1-280); test: SEC
T1 sequence: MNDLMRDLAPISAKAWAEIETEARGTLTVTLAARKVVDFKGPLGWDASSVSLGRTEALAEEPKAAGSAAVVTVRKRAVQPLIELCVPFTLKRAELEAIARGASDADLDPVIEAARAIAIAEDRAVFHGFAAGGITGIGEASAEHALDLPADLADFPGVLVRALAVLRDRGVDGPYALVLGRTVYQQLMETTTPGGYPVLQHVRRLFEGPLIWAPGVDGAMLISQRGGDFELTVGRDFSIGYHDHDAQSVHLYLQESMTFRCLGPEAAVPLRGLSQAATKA

native MS [9] = target: the molecule itself; test: native MS; remark: listed apart in the source

## Isotopically depleted, truncated, strepII-tagged R. rubrum encapsulated ferritin (wild type) (domain or fragment)
[1]
  stoichiometry N: 2
[2]
  stoichiometry N: 10
[3]
  stoichiometry N: 10
[4]
  stoichiometry N: 2
[5]
  stoichiometry N: 10
[6]
  stoichiometry N: 4

B1: Truncated, C-terminally hexahistidine-tagged R. rubrum encapsulated ferritin E31A variant (domain or fragment)
chain: MAQSSNSTHEPLEVLKEETVNRHRAIVSVMAELEAVDWYDQRVDASTDPELTAILAHNRDEEKEHAAMTLEWLRRNDAKWAEHLRTYLFTEGPITA
Crystal structure
  stoichiometry N: 10

B2: Truncated, C-terminally hexahistidine-tagged R. rubrum encapsulated ferritin E34A variant (domain or fragment)
chain: MAQSSNSTHEPLEVLKEETVNRHRAIVSVMEELAAVDWYDQRVDASTDPELTAILAHNRDEEKEHAAMTLEWLRRNDAKWAEHLRTYLFTEGPITA
Crystal structure
  stoichiometry N: 10

B3: Rhodospirillum rubrum encapsulated ferritin, wild type (natural protein)
chain: MAQSSNSTHEPLEVLKEETVNRHRAIVSVMEELEAVDWYDQRVDASTDPELTAILAHNRDEEKEHAAMTLEWLRRNDAKWAEHLRTYLFTEGPITAIEAADTAGEGSGGDAAKGATAQGDGSLGIGSLKGEAALARPPRL
SEC
  stoichiometry N: 10 and 4
Native MS [7]
  stoichiometry N: 2
[8]
  binding result: binds

B4: Rhodospirillum rubrum encapsulated ferritin W38G variant (natural protein)
chain: MAQSSNSTHEPLEVLKEETVNRHRAIVSVMEELEAVDGYDQRVDASTDPELTAILAHNRDEEKEHAAMTLEWLRRNDAKWAEHLRTYLFTEGPITAIEAADTAGEGSGGDAAKGATAQGDGSLGIGSLKGEAALARPPRL
[8]
  binding result: binds

B5: Rhodospirillum rubrum encapsulated ferritin W38A variant (natural protein)
chain: MAQSSNSTHEPLEVLKEETVNRHRAIVSVMEELEAVDAYDQRVDASTDPELTAILAHNRDEEKEHAAMTLEWLRRNDAKWAEHLRTYLFTEGPITAIEAADTAGEGSGGDAAKGATAQGDGSLGIGSLKGEAALARPPRL
[8]
  binding result: binds

B6: Rhodospirillum rubrum encapsulated ferritin E31A variant (natural protein)
chain: MAQSSNSTHEPLEVLKEETVNRHRAIVSVMAELEAVDWYDQRVDASTDPELTAILAHNRDEEKEHAAMTLEWLRRNDAKWAEHLRTYLFTEGPITAIEAADTAGEGSGGDAAKGATAQGDGSLGIGSLKGEAALARPPRL
SEC
  stoichiometry N: 4 and 2
Native MS [9]
  stoichiometry N: 10
[8]
  binding result: binds

B7: Rhodospirillum rubrum encapsulated ferritin E34A variant (natural protein)
chain: MAQSSNSTHEPLEVLKEETVNRHRAIVSVMEELAAVDWYDQRVDASTDPELTAILAHNRDEEKEHAAMTLEWLRRNDAKWAEHLRTYLFTEGPITAIEAADTAGEGSGGDAAKGATAQGDGSLGIGSLKGEAALARPPRL
SEC
  stoichiometry N: 4 and 2
Native MS [9]
  stoichiometry N: 10
[8]
  binding result: binds
